Measured values from US20220064329A1 (Novo Nordisk, published 2022).

T1: recombinant human activated Factor VII (FVIIa) (human, UniProt P08709 61-212; P08709 213-466, ten glutamate residues of the Gla domain may be gamma-carboxylated)
T1 construct: chains tethered by a disulfide bond; also called Factor VIIa; rFVIIa
T1 sequence 1: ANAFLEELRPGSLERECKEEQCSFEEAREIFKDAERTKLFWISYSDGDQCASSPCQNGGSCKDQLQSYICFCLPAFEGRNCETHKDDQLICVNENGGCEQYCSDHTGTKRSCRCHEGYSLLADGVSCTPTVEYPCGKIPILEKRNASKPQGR
T1 sequence 2: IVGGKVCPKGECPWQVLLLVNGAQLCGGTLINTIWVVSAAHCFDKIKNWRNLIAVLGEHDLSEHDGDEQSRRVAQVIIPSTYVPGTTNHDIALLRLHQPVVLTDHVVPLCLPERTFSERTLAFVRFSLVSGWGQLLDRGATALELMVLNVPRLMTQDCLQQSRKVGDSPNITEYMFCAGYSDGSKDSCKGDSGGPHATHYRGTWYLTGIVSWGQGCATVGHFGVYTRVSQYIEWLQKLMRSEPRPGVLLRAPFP


Target: T1, recombinant human activated Factor VII …
Assay: BLI (Fortebio)

Row | Binder | Kd
1 | VH SEQ ID NO 554 / VL SEQ ID NO 494 (antibody, IgG4, V domains shown, humanized 11F2; IgG4 S228P/kappa) VH: QVQLQESGPGLVKPSDTLSLTCAVSGYSISSDSAWSWIRQFPGKGLEWIGYIQYSGSTNYNPSLKSRVTMSVDTSKNQFSLKLSSVTALDTAVYYCARSVNYYGNSFAVGPWGQGTLVTVSS VL: EIVLTQSPATLSLSPGERATLSCRASQGVSDYLHWYQQKPGQAPRLLIKYASQPATGIPARFSGSGSGTDFTLTISSLEPEDVAVYYCQNGHSFPLTFGQGTKLEIK | 22 nM
2 | VH SEQ ID NO 562 / VL SEQ ID NO 390 (antibody, IgG4, V domains shown, humanized 11F2; IgG4 S228P/kappa) VH: QVQLQESGPGLVKPSDTLSLTCAVSGYSISSDSAWSWIRQPPGKGLEWIGYIQYSGSTNYNPSLKSRVTMSRDTSKNQFSLKLSSVTALDTAVYYCARSVNYYGNSFAVGPWGQGTLVTVSS VL: EIVLTQSPATLSLSPGERATLSCRASQGVSDYLAWYQQKPGEAPRLLIKYASQPATGIPARFSGSGSGTDFTLTISSLEPEDFAVYYCQNGHSFPLTFGQGTKLEIK | 10 nM
3 | VH SEQ ID NO 562 / VL SEQ ID NO 310 (antibody, IgG4, V domains shown, humanized 11F2; IgG4 S228P/kappa) VH: QVQLQESGPGLVKPSDTLSLTCAVSGYSISSDSAWSWIRQPPGKGLEWIGYIQYSGSTNYNPSLKSRVTMSRDTSKNQFSLKLSSVTALDTAVYYCARSVNYYGNSFAVGPWGQGTLVTVSS VL: EIVLTQSPATLSLSPGERATLSCRASQGISDYLAWYQQKPGQAPRLLIKYASQPATGIPARFSGSGSGTDFTLTISSLEPEDFAVYYCQNGHSFPLTFGQGTKLEIK | 6.4 nM
4 | VH SEQ ID NO 554 / VL SEQ ID NO 502 (antibody, IgG4, V domains shown, humanized 11F2; IgG4 S228P/kappa) VH: QVQLQESGPGLVKPSDTLSLTCAVSGYSISSDSAWSWIRQFPGKGLEWIGYIQYSGSTNYNPSLKSRVTMSVDTSKNQFSLKLSSVTALDTAVYYCARSVNYYGNSFAVGPWGQGTLVTVSS VL: EIVLTQSPATLSLSPGERATLSCRASQGVSDYLHWYQQKPGQAPRLLIKYTSQPATGIPARFSGSGSGTDFTLTISSLEPEDFAVYYCQNGHSFPLTFGQGTKLEIK | 18 nM
5 | VH SEQ ID NO 562 / VL SEQ ID NO 414 (antibody, IgG4, V domains shown, humanized 11F2; IgG4 S228P/kappa) VH: QVQLQESGPGLVKPSDTLSLTCAVSGYSISSDSAWSWIRQPPGKGLEWIGYIQYSGSTNYNPSLKSRVTMSRDTSKNQFSLKLSSVTALDTAVYYCARSVNYYGNSFAVGPWGQGTLVTVSS VL: EIVLTQSPATLSLSPGERATLSCRASQGVSDYLAWYQQKPGQAPRLLIKYASQPATGIPARFSGSGSGTDFTLTISSLEPEDFAVYYCQNGHSFPLTFGQGTKLEIK | 8.8 nM
6 | VH SEQ ID NO 562 / VL SEQ ID NO 342 (antibody, IgG4, V domains shown, humanized 11F2; IgG4 S228P/kappa) VH: QVQLQESGPGLVKPSDTLSLTCAVSGYSISSDSAWSWIRQPPGKGLEWIGYIQYSGSTNYNPSLKSRVTMSRDTSKNQFSLKLSSVTALDTAVYYCARSVNYYGNSFAVGPWGQGTLVTVSS VL: EIVLTQSPATLSLSPGERATLSCRASQGISDYLHWYQQKPGQAPRLLIKYTSQPATGIPARFSGSGSGRDFTLTISSLEPEDFAVYYCQNGHSFPLTFGAGTKLELK | 1.3 nM
7 | VH SEQ ID NO 562 / VL SEQ ID NO 430 (antibody, IgG4, V domains shown, humanized 11F2; IgG4 S228P/kappa) VH: QVQLQESGPGLVKPSDTLSLTCAVSGYSISSDSAWSWIRQPPGKGLEWIGYIQYSGSTNYNPSLKSRVTMSRDTSKNQFSLKLSSVTALDTAVYYCARSVNYYGNSFAVGPWGQGTLVTVSS VL: EIVLTQSPATLSLSPGERATLSCRASQGVSDYLAWYQQKPGQAPRLLIKYASQPATGIPARFSGSGSGTDFTLTISSLEPEDFGVYYCQNGHSFPLTFGQGTKLEIK | 7.9 nM
8 | VH SEQ ID NO 562 / VL SEQ ID NO 422 (antibody, IgG4, V domains shown, humanized 11F2; IgG4 S228P/kappa) VH: QVQLQESGPGLVKPSDTLSLTCAVSGYSISSDSAWSWIRQPPGKGLEWIGYIQYSGSTNYNPSLKSRVTMSRDTSKNQFSLKLSSVTALDTAVYYCARSVNYYGNSFAVGPWGQGTLVTVSS VL: EIVLTQSPATLSLSPGERATLSCRASQGVSDYLAWYQQKPGQAPRLLIKYASQPATGIPARFSGSGSGTDFTLTISSLEPEDFAVYYCQQGHSFPLTFGQGTKLEIK | 18 nM
9 | VH SEQ ID NO 562 / VL SEQ ID NO 406 (antibody, IgG4, V domains shown, humanized 11F2; IgG4 S228P/kappa) VH: QVQLQESGPGLVKPSDTLSLTCAVSGYSISSDSAWSWIRQPPGKGLEWIGYIQYSGSTNYNPSLKSRVTMSRDTSKNQFSLKLSSVTALDTAVYYCARSVNYYGNSFAVGPWGQGTLVTVSS VL: EIVLTQSPATLSLSPGERATLSCRASQGVSDYLAWYQQKPGQAPRLLIKYASQPATGIPARFSGSGSGTDFTLTISSLEPEDFAVYYCQNGHSFPLTFGAGTKLEIK | 7.7 nM
10 | VH SEQ ID NO 562 / VL SEQ ID NO 366 (antibody, IgG4, V domains shown, humanized 11F2; IgG4 S228P/kappa) VH: QVQLQESGPGLVKPSDTLSLTCAVSGYSISSDSAWSWIRQPPGKGLEWIGYIQYSGSTNYNPSLKSRVTMSRDTSKNQFSLKLSSVTALDTAVYYCARSVNYYGNSFAVGPWGQGTLVTVSS VL: EIVLTQSPATLSLSPGERATLSCRASQGLSDYLAWYQQKPGEAPRLLIKYASQPATGIPARFSGSGSGTDFTLTISSLEPEDFAVYYCQNGHSFPLTFGQGTKLEIK | 8.3 nM

Stronger by Kd, values ahead:

Row | Kd | Binder
11 | 1.2 nM | VH SEQ ID NO 562 / VL SEQ ID NO 382 (antibody, IgG4, V domains shown, humanized 11F2; IgG4 S228P/kappa) VH: QVQLQESGPGLVKPSDTLSLTCAVSGYSISSDSAWSWIRQPPGKGLEWIGYIQYSGSTNYNPSLKSRVTMSRDTSKNQFSLKLSSVTALDTAVYYCARSVNYYGNSFAVGPWGQGTLVTVSS VL: EIVLTQSPATLSLSPGERATLSCRASQGLSDYLHWYQQKPGEAPRLLIKYASQPATGIPARFSGSGSGTDFTLTISSLEPEDFAVYYCQNGHSFPLTFGQGTKLEIK
12 | 0.95 nM | VH SEQ ID NO 562 / VL SEQ ID NO 358 (antibody, IgG4, V domains shown, humanized 11F2; IgG4 S228P/kappa) VH: QVQLQESGPGLVKPSDTLSLTCAVSGYSISSDSAWSWIRQPPGKGLEWIGYIQYSGSTNYNPSLKSRVTMSRDTSKNQFSLKLSSVTALDTAVYYCARSVNYYGNSFAVGPWGQGTLVTVSS VL: EIVLTQSPATLSLSPGERATLSCRASQGISDYLHWYQQKPGQAPRLLIKYTSQPATGIPARFSGSGSGTDFTLTISSLEPEDFAVYYCQNGHSFPLTFGQGTKLEIK
13 | 0.92 nM | VH SEQ ID NO 562 / VL SEQ ID NO 318 (antibody, IgG4, V domains shown, humanized 11F2; IgG4 S228P/kappa) VH: QVQLQESGPGLVKPSDTLSLTCAVSGYSISSDSAWSWIRQPPGKGLEWIGYIQYSGSTNYNPSLKSRVTMSRDTSKNQFSLKLSSVTALDTAVYYCARSVNYYGNSFAVGPWGQGTLVTVSS VL: EIVLTQSPATLSLSPGERATLSCRASQGISDYLHWYQQKPGEAPRLLIKYTSQPATGIPARFSGSGSGTDFTLTISSLEPEDFAVYYCQNGHSFPLTFGQGTKLEIK
14 | 0.93 nM | VH SEQ ID NO 562 / VL SEQ ID NO 350 (antibody, IgG4, V domains shown, humanized 11F2; IgG4 S228P/kappa) VH: QVQLQESGPGLVKPSDTLSLTCAVSGYSISSDSAWSWIRQPPGKGLEWIGYIQYSGSTNYNPSLKSRVTMSRDTSKNQFSLKLSSVTALDTAVYYCARSVNYYGNSFAVGPWGQGTLVTVSS VL: EIVLTQSPATLSLSPGERATLSCRASQGISDYLHWYQQKPGQAPRLLIKYTSQPATGIPARFSGSGSGTDFTLTISSLEPEDFAVYYCQNGHSFPLTFGAGTKLELK
15 | 0.78 nM | VH SEQ ID NO 562 / VL SEQ ID NO 326 (antibody, IgG4, V domains shown, humanized 11F2; IgG4 S228P/kappa) VH: QVQLQESGPGLVKPSDTLSLTCAVSGYSISSDSAWSWIRQPPGKGLEWIGYIQYSGSTNYNPSLKSRVTMSRDTSKNQFSLKLSSVTALDTAVYYCARSVNYYGNSFAVGPWGQGTLVTVSS VL: EIVLTQSPATLSLSPGERATLSCRASQGISDYLHWYQQKPGEAPRLLIKYTSQPATGIPARFSGSGSGTDFTLTISSLEPEDFGVYYCQNGHSFPLTFGAGTKLELK
16 | 1.2 nM | VH SEQ ID NO 562 / VL SEQ ID NO 334 (antibody, IgG4, V domains shown, humanized 11F2; IgG4 S228P/kappa) VH: QVQLQESGPGLVKPSDTLSLTCAVSGYSISSDSAWSWIRQPPGKGLEWIGYIQYSGSTNYNPSLKSRVTMSRDTSKNQFSLKLSSVTALDTAVYYCARSVNYYGNSFAVGPWGQGTLVTVSS VL: EIVLTQSPATLSLSPGERATLSCRASQGISDYLHWYQQKPGQAPRLLIKYASQPATGIPARFSGSGSGTDFTLTISSLEPEDFAVYYCQNGHSFPLTFGQGTKLEIK
